B1: CsPDX2.1 promoter W box 2 biotin probe (dsDNA)
DNA 1: TTTATTTAAGAATTGACCGTAGATAACTTT
DNA 2: AAAGTTATCTACGGTCAATTCTTAAATAAA
B2: cold probe (W box 2) (dsDNA)
DNA 1: B1 DNA 1
DNA 2: B1 DNA 2
B3: mutant probe (TTGACC to AAAAAA) (dsDNA)
DNA 1: TTTATTTAAGAAAAAAAAGTAGATAACTTT
DNA 2: AAAGTTATCTACTTTTTTTTCTTAAATAAA

Experiments:
CsWRKY40 [1] = target: T1, CsWRKY40 (Camellia sinensis, UniProt A0A4S4ET85 1-292); test: EMSA; LightShift Chemiluminescent EMSA kit (ThermoFisher) per instructions; buffer, salt, pH and temperature not stated; conditions: protein: recombinant; tags: GST (pGEX-4T-1); label: 3' biotin on both strands; blunt
T1 sequence (A0A4S4ET85 entry or part of it): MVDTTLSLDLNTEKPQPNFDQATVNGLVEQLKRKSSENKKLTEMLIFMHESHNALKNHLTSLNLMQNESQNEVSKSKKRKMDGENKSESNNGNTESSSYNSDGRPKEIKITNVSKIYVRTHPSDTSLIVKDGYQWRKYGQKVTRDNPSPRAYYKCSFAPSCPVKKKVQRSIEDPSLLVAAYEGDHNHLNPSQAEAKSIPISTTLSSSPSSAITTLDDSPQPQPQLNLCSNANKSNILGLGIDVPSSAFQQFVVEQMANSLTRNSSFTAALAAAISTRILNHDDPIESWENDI

CsWRKY40 [2] = target: T1, CsWRKY40; test: competition; unlabelled competitor against biotin probe N1; shift gradually reduced with increasing cold probe; LightShift Chemiluminescent EMSA kit (ThermoFisher) per instructions; buffer, salt, pH and temperature not stated; conditions: protein: recombinant; tags: GST (pGEX-4T-1); blunt

Binder	binding result (CsWRKY40 [1])	binding result (CsWRKY40 [2])
B1	binds	–
B2	–	binds
B3	no binding	–

Reference: publication PMC9055099, “Transcription factor CsWRKY40 regulates L-theanine hydrolysis by activating the CsPDX2.1 promoter in tea leaves during withering”
